The source of these data is US20260043046A1 (ADVERUM BIOTECHNOLOGIES, published 2026).

The target in assay [1] is T1, human complement C3 (Cat: C2910, Sigma) (human, UniProt P01024 23-1663).
T1 construct: Bought protein; Native C3 is a two-chain (beta/alpha) protein processed from one precursor, so it is written here as one natural entry; also called Complement component 3
Briefly: BLI (Octet HTX, 25 °C), human IgG1 in buffer against human complement C3.

The target of assay [2] is T1, human complement C3 (Cat: C2910, Sigma). Briefly: BLI (Octet HTX, 25 °C), HEK293 supernatant against human complement C3. The protocol: Supernatant from suspension HEK293 cells transfected with vector carrying gene encoding anti-C3 antibody (cell culture and transfection methods can be found in previous section) were used for kinetics analysis via Octet (BLI) to measure binding affinity to human complement C3 (Cat: C2910, Sigma). Binding experiments were performed on Octet HTX at 25° C. by LakePharma (Redwood City, CA). There were three test articles including products of pADV1176 (0.015 mg/mL), negative control (supernatant from untransfected cells) and positive control (human IgG1 in buffer—137 mM NaCl, 2.7 mM KCl, 10 mM Na₂HPO₄, 2 mM KH₂PO₄, pH 7.4, 0.98 mg/mL).
In general terms: BLI is a label-free optical method that tracks binding on a fibre tip over time.

T1 sequence (P01024 23-1663 limits assumed): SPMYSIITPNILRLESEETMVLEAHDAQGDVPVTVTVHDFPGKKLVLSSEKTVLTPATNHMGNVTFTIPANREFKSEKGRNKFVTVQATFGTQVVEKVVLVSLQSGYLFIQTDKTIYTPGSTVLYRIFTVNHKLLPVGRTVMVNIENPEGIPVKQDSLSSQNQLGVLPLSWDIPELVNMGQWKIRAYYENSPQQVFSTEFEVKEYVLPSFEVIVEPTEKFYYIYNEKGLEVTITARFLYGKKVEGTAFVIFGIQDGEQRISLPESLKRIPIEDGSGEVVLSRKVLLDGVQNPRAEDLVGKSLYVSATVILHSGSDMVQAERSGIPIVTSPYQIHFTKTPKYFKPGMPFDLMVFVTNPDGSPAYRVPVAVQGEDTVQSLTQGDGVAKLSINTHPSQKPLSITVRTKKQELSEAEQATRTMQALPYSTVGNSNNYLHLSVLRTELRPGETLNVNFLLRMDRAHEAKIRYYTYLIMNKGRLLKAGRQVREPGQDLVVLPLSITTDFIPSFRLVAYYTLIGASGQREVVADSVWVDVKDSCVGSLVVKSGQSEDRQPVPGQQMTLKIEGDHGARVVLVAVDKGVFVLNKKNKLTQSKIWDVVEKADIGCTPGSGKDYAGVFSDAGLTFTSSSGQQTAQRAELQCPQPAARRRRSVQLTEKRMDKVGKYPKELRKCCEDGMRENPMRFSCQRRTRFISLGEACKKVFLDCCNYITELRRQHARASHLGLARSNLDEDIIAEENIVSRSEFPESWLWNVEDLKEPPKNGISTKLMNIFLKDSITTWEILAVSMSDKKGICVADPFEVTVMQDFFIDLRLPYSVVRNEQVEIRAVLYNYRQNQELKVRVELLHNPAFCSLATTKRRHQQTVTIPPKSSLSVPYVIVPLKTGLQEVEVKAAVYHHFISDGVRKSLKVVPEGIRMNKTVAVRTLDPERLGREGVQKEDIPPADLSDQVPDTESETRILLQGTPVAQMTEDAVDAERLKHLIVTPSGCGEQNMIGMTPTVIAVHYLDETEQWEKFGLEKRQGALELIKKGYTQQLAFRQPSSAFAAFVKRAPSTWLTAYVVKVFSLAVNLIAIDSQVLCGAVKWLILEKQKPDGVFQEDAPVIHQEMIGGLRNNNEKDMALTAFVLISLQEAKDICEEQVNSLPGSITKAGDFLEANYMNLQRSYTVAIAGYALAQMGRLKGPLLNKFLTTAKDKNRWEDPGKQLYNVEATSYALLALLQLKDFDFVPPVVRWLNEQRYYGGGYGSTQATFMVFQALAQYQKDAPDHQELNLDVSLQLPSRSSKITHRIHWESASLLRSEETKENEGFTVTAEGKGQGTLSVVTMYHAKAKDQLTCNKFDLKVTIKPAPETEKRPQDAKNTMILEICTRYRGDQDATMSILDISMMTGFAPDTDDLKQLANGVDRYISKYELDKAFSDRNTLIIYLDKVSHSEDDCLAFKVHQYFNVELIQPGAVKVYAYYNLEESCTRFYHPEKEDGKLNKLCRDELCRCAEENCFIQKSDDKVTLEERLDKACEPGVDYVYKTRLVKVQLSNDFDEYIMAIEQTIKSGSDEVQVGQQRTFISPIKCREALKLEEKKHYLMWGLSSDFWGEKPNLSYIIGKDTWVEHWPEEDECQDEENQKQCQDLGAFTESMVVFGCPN

Take “Positive control (human IgG1 in buffer, 0.98 mg/mL) (antibody)”: in assay [1], the equilibrium dissociation constant (Kd) worked out at 0.256 nM, the off-rate (koff) is 4.92e-05 s⁻¹ and the association rate constant (kon) was 193000 M⁻¹ s⁻¹.

B1: Products of pADV1176 (anti-C3 antibody expressed from plasmid pADV1176 in suspension HEK293 cells) (antibody, human IgG1, kappa, V domains shown)
VH: QVQLVQSGAEVKKPGASVKVSCKASGYTFTDFYMDWVRQAPGQRLEWMGYIYPHNAGTTYNQQFTGRVTITVDKSASTAYMELSSLRSEDTAVYYCARRGGFDFDYWGQGTLVTVSS
VL: DIQMTQSPSSLSASVGDRVTITCKASENVDTYVSWYQQKPGKAPKLLIYGASNRYTGVPSRFSGSGSGTDFTFTISSLQPEDIATYHCGQSHSYPLTFGQGTKLEIKR
notes: Full-length humanized human IgG1, tested as unpurified HEK293 supernatant at 0.015 mg/mL; Two copies of each chain is inferred from 'full-length' IgG1; also called humanized anti-C3 antibody; products of AAV2.7m8-pADV1176
Take B1: in assay [2], binding was characterised by a dissociation constant (Kd) of 0.13 nM, the off-rate constant (koff) worked out at 2.67e-05 s⁻¹ and the kon came to 206000 M⁻¹ s⁻¹.

The Kd is the free concentration of one partner at which half of the binding sites on the other are occupied at equilibrium, for simple one-to-one binding. A high value points to weaker binding. As usually defined, the koff is the first-order rate constant of dissociation. A word on the kon: it is a measure of how fast the partners come together. Read a low kon as slower complex formation.
